# Assay results from article PMC4373775.
# Changes are numbered by the printed parent chain.
# Columns and labels:
# [1] = molecular target: T1, ParB_Asp S5D;T32D;T41D;T53D;T110D;T195D;S239D;T254D;T300D;T303D (Mycobacterium tuberculosis H37Rv) (UniProt P9WIJ9); assay: EMSA
# T1 sequence: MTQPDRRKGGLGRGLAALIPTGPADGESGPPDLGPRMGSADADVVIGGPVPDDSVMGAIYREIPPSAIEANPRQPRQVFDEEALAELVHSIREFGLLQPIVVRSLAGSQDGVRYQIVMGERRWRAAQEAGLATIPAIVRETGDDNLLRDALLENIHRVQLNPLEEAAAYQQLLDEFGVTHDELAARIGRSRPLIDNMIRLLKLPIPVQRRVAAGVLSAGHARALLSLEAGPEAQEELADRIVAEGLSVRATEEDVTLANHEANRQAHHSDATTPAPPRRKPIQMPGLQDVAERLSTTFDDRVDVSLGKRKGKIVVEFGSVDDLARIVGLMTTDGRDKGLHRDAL
# [2] = molecular target: T2, ParB_Ala S5A;T32A;T41A;T53A;T110A;T195A;S239A;T254A;T300A;T303A (Mycobacterium tuberculosis H37Rv) (UniProt P9WIJ9); assay: EMSA
# T2 sequence: T1 sequence with D5A, D32A, D41A, D53A, D110A, D195A, D239A, D254A, D300A, D303A
sequence,measurement,setting,value
GCGAGTGGAGGGACGGCGTGAGTGCTCCGTGGGGCCCGGTGGCCGCTGGACCGTCCGCGCTCGTAAGGTCGGGCCAGGCTTCAACTATCGAACCATTCCAGCGGGAAATGACACCACCGACACCGACGCCTGAGGCCGCGCACAATCCGACGATGAATGTTTCACGTGAAACATCGACAGAATTCGACACCCCCATCGGCGCTGCAGCAGAACGTGCGATGCG (double strand) [parS probe],binding,[1],binds more weakly
same,binding,[2],binds
